Tested on: EGFP-R96X-TGA
Assay: Readthrough of suppressor tRNA delivered by AAV-PHP.eB, EGFP-R96X-TGA, 293 cells pre-transfected with LY6A (FIG. 41)
Type: cell-based, human
Text: FIG. 40 is a schematic representation of constructs that were packaged into AAV-PHP.eB capsids. Construct 262 contains wild-type EGFP driven by an EF1a promoter. Construct 269 contains EGFP-R96X-TGA driven by an EF1a promoter (SEQ ID NO: 177) and two copies of the ArgTCA suppressor tRNA #115 (SEQ ID NO: 18) (“TCA-115”) in the context of 55 bps upstream flanking genomic DNA from tRNA-Tyr-GTA-5-1 (SEQ ID NO: 900). Both constructs contain 5′ and 3′ ITR sequences from AAV2, which provide cis-acting elements for AAV replication and packaging.
FIG. 41 depicts readthrough activity of suppressor tRNAs delivered by AAV. AAV-PHP.eB containing the constructs shown in FIG. 40 was produced by Vigene Biosciences. 48 hours prior to AAV transduction, 293 cells were pre-transfected with an expression construct containing the LY6A gene, which is required for robust transduction by AAV-PHP.eB. Cells were transduced at an MOI of 1E5 vg/cell. Where indicated, cells were also transfected with an expression construct containing the EGFP-R96X-TGA reporter (SEQ ID NO: 31) and an expression construct containing the ArgTCA suppressor tRNA #115 (SEQ ID NO: 18). At 72 hours post transduction, the EGFP signal was quantified by immunofluorescence. Live cell images were captured on an EVOS FL Auto 2 imaging system. […]

B1: tRNA-Arg-TCT-2-1-TCA-SUP_no intron (nucleic acid)
chain: GGCTCCGTGGCGCAATGGATAGCGCATTGGACTTCAAATTCAAAGGTTCCGGGTTCGAGTCCCGGCGGAGTCG
modifications: chemistry not fully specified
- readthrough activity, AAV delivery versus transient transfection (293 cells pre-transfected with LY6A): comparable readthrough activity when delivered by AAV or transient transfection
- PTC readthrough based on GFP intensity (AAV-PHP.eB with construct 269 (two copies of #115), MOI 1E5 vg/cell, 72 hours post transduction, normalized to construct 262 (wild-type EGFP)): ~ 13.2%

— patent US12697350B2, “Methods and compositions for treating a premature termination codon-mediated disorder” (Tevard Biosciences, Inc., priority 2019, dated 2026)
